Biological target: c-myc-tagged Sec8 (S. cerevisiae) (UniProt P32855)
Experiment: co-IP

B1: Sec4 (natural protein)
chain: MSGLRTVSASSGNGKSYDSIMKILLIGDSGVGKSCLLVRFVEDKFNPSFITTIGIDFKIKTVDINGKKVKLQLWDTAGQERFRTITTAYYRGAMGIILVYDVTDERTFTNIKQWFKTVNEHANDEAQLLLVGNKSDMETRVVTADQGEALAKELGIPFIESSAKNDDNVNEIFFTLAKLIQEKIDSNKLVGVGNGKEGNISINSGSGNSSKSNCC
B1 was tested. Which percent of the total Sec4 associated (limit of detection) did it give?
Its percent of the total Sec4 associated (limit of detection) is < 0.07%.

Reference: publication PMC2199927
